Source: the RNAGym collection of RNA variant scans (doi:10.1093/molbev/msab373)

B1: Azoarcus group I ribozyme (parent)
chain: GUGCCUUGCGCCGGGAAACCACGCAAGGGAUGGUGUCAAAUUCGGCGAAACCUAAGCGCCCGCCCGGGCGUAUGGCAACGCCGAGCCAAGCUUCGGCGCCUGCGCCGAUGAAGGUGUAGAGACUAGACGGCACCCACCUAAGGCAAACGCUAUGGUGAAGGCAUAGUCCAGGGAGUGGCGAAAGUCACACAAACCGG

Variants of: B1
Assay: reverse-splicing fitness (ratio to wild type); higher = more active; in vitro selection; Mg2+ level not given
Procedure, shortened: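 An in vitro group I ribozyme library with randomized positions was T7-transcribed and gel-purified. In triplicate, 10 pmol RNA in EPPS pH 7.5 was reacted with 50 pmoles of a 30-nt RNA substrate for 1 h at 37 °C across several added MgCl2 levels (1–48 mM), then stopped with EDTA. Products were reverse transcribed from a substrate-complementary primer, PCR-amplified and sequenced (HiSeq 4000). Fitness is a variant's read proportion after selection over that before, normalised to wild type.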

Which reverse-splicing fitness does the source give for C82U A111C A120G A145U C169U U176A here?
The reverse-splicing fitness was 0.0158.

For C82U A111C A120G A145U C169U U176G, which reverse-splicing fitness is on record?
Its reverse-splicing fitness is 0.00369.

With C82U A111C A120G A145U C150G C169A U176G as the variant, how does the reverse-splicing fitness read?
Its reverse-splicing fitness is 0.00541.

For C82U A111C A120G A145U C150G C169A U176A, which reverse-splicing fitness is on record?
The reverse-splicing fitness was 0.0108.

With C82U A111C A120G A145U C150G C169A U176C as the variant, how does the reverse-splicing fitness read?
The reverse-splicing fitness was 0.00893.

Which reverse-splicing fitness does the source give for C82U A111C A120G A145U C169G U176A here?
The reverse-splicing fitness was 0.00938.

With C82U A111C A120G A145U C169G U176G as the variant, how does the reverse-splicing fitness read?
The reverse-splicing fitness was 0.00395.

With C82U A111C A120G A145U C169G U176C as the variant, how does the reverse-splicing fitness read?
The reverse-splicing fitness was 0.0109.

For C82U A111C A120G A145U C150U C169U U176C, which reverse-splicing fitness is on record?
The reverse-splicing fitness was 0.0107.

For C82U A111C A120G A145U C150U C169U U176G, which reverse-splicing fitness is on record?
The reverse-splicing fitness was 0.00431.

Which reverse-splicing fitness does the source give for C82U A111C A120G A145U C150U C169U U176A here?
Its reverse-splicing fitness is 0.0158.

With C82U A111C A120G C150U C169U U176A as the variant, how does the reverse-splicing fitness read?
The reverse-splicing fitness was 0.017.

With C82U A111C A120G C150U C169U U176C as the variant, how does the reverse-splicing fitness read?
Its reverse-splicing fitness is 0.014.

Which reverse-splicing fitness does the source give for C82U A111C A120G C150U C169U U176G here?
Its reverse-splicing fitness is 0.00513.

With C82U A111C A120U A145C C150U C169A as the variant, how does the reverse-splicing fitness read?
The reverse-splicing fitness was 0.00253.

Which reverse-splicing fitness does the source give for C82U A111C A120U A145C C150U C169G here?
Its reverse-splicing fitness is 0.00293.

Which reverse-splicing fitness does the source give for C82U A111C A120U A145C C150U C169U here?
Its reverse-splicing fitness is 0.00319.

With C82U A111C A120G A145U C150U U176G as the variant, how does the reverse-splicing fitness read?
Its reverse-splicing fitness is 0.00357.

Which reverse-splicing fitness does the source give for C82U A111C A120G A145U C150U U176C here?
Its reverse-splicing fitness is 0.0178.

Which reverse-splicing fitness does the source give for C82U A111C A120G A145U C150U U176A here?
The reverse-splicing fitness was 0.013.

For C82U A111C A120G A145U C150A U176G, which reverse-splicing fitness is on record?
The reverse-splicing fitness was 0.00424.

Which reverse-splicing fitness does the source give for C82U A111C A120G A145U C150A U176A here?
The reverse-splicing fitness was 0.0119.

For C82U A111C A120G A145U C150A U176C, which reverse-splicing fitness is on record?
Its reverse-splicing fitness is 0.0144.

With C82U A111C A120G A145G C150G C169U as the variant, how does the reverse-splicing fitness read?
The reverse-splicing fitness was 0.00832.

With C82U A111C A120G A145G C150G C169A as the variant, how does the reverse-splicing fitness read?
Its reverse-splicing fitness is 0.0087.

With C82U A111C A120G A145G C150G C169G as the variant, how does the reverse-splicing fitness read?
The reverse-splicing fitness was 0.0068.

With C82U A111C A120U A145U C150A U176G as the variant, how does the reverse-splicing fitness read?
Its reverse-splicing fitness is 0.00247.

With C82U A111C A120U A145U C150A U176C as the variant, how does the reverse-splicing fitness read?
The reverse-splicing fitness was 0.00465.

With C82U A111C A120U A145U C150A U176A as the variant, how does the reverse-splicing fitness read?
The reverse-splicing fitness was 0.00357.

For C82U A111C A120G A145G C150U C169U U176A, which reverse-splicing fitness is on record?
Its reverse-splicing fitness is 0.0152.

Which reverse-splicing fitness does the source give for C82U A111C A120G A145G C150U C169U U176G here?
Its reverse-splicing fitness is 0.00449.

For C82U A111C A120G A145G C150U C169U U176C, which reverse-splicing fitness is on record?
Its reverse-splicing fitness is 0.0131.

Which reverse-splicing fitness does the source give for C82U A111C A120G A145U C150A C169G U176A here?
The reverse-splicing fitness was 0.0105.

For C82U A111C A120G A145U C150A C169G U176G, which reverse-splicing fitness is on record?
The reverse-splicing fitness was 0.00431.

Which reverse-splicing fitness does the source give for C82U A111C A120G A145U C150A C169G U176C here?
Its reverse-splicing fitness is 0.0126.

Which reverse-splicing fitness does the source give for C82U A111C A120U A145C C150A U176A here?
The reverse-splicing fitness was 0.00307.

Which reverse-splicing fitness does the source give for C82U A111C A120U A145C C150A U176G here?
The reverse-splicing fitness was 0.00265.

For C82U A111C A120U A145C C150A U176C, which reverse-splicing fitness is on record?
The reverse-splicing fitness was 0.00397.

With C82U A111C A120U A145C C169G U176G as the variant, how does the reverse-splicing fitness read?
Its reverse-splicing fitness is 0.00186.

For C82U A111C A120U A145C C169G U176A, which reverse-splicing fitness is on record?
Its reverse-splicing fitness is 0.00206.

For C82U A111C A120U A145C C169G U176C, which reverse-splicing fitness is on record?
The reverse-splicing fitness was 0.00215.

For C82U A111C A120G C150U C169A U176C, which reverse-splicing fitness is on record?
The reverse-splicing fitness was 0.0113.

Which reverse-splicing fitness does the source give for C82U A111C A120G C150U C169A U176A here?
Its reverse-splicing fitness is 0.0142.

Which reverse-splicing fitness does the source give for C82U A111C A120G C150U C169A U176G here?
Its reverse-splicing fitness is 0.00479.

With C82U A111C A120U A145C C150G C169U U176G as the variant, how does the reverse-splicing fitness read?
The reverse-splicing fitness was 0.00217.

Which reverse-splicing fitness does the source give for C82U A111C A120U A145C C150G C169U U176C here?
Its reverse-splicing fitness is 0.00284.

For C82U A111C A120U A145C C150G C169U U176A, which reverse-splicing fitness is on record?
The reverse-splicing fitness was 0.00332.

With C82U A111C A120U A145G C150G C169U U176A as the variant, how does the reverse-splicing fitness read?
The reverse-splicing fitness was 0.0084.

With C82U A111C A120U A145G C150G C169U U176C as the variant, how does the reverse-splicing fitness read?
Its reverse-splicing fitness is 0.00661.

For C82U A111C A120U A145G C150G C169U U176G, which reverse-splicing fitness is on record?
The reverse-splicing fitness was 0.00411.

With C82U A111C A120U A145C C150U C169G U176G as the variant, how does the reverse-splicing fitness read?
Its reverse-splicing fitness is 0.00216.

For C82U A111C A120U A145C C150U C169G U176A, which reverse-splicing fitness is on record?
Its reverse-splicing fitness is 0.003.

Which reverse-splicing fitness does the source give for C82U A111C A120U A145C C150U C169G U176C here?
The reverse-splicing fitness was 0.00273.

For C82U A111C A120G A145G C169G U176A, which reverse-splicing fitness is on record?
The reverse-splicing fitness was 0.019.

With C82U A111C A120G A145G C169G U176C as the variant, how does the reverse-splicing fitness read?
Its reverse-splicing fitness is 0.028.

Which reverse-splicing fitness does the source give for C82U A111C A120G A145G C169G U176G here?
Its reverse-splicing fitness is 0.00408.

For C82U A111C A120U, which reverse-splicing fitness is on record?
The reverse-splicing fitness was 0.0257.

Which reverse-splicing fitness does the source give for C82U A111C A120G C150G C169U here?
Its reverse-splicing fitness is 0.00766.

For C82U A111C A120G C150G C169A, which reverse-splicing fitness is on record?
The reverse-splicing fitness was 0.00813.

Which reverse-splicing fitness does the source give for C82U A111C A120G C150G C169G here?
The reverse-splicing fitness was 0.00667.

For C82U A111C A120U A145C C150G, which reverse-splicing fitness is on record?
Its reverse-splicing fitness is 0.00528.

With C82U A111C A120U A145C C150U as the variant, how does the reverse-splicing fitness read?
The reverse-splicing fitness was 0.00868.

Which reverse-splicing fitness does the source give for C82U A111C A120U A145C C150A here?
The reverse-splicing fitness was 0.00398.

Which reverse-splicing fitness does the source give for C82U A111C A120G A145U C150G U176C here?
Its reverse-splicing fitness is 0.0141.

For C82U A111C A120G A145U C150G U176A, which reverse-splicing fitness is on record?
The reverse-splicing fitness was 0.00768.

Which reverse-splicing fitness does the source give for C82U A111C A120G A145U C150G U176G here?
Its reverse-splicing fitness is 0.00282.

Which reverse-splicing fitness does the source give for C82U A111C A120U A145U C150A C169U U176C here?
The reverse-splicing fitness was 0.00256.

For C82U A111C A120U A145U C150A C169U U176G, which reverse-splicing fitness is on record?
Its reverse-splicing fitness is 0.00245.

Which reverse-splicing fitness does the source give for C82U A111C A120U A145U C150A C169U U176A here?
The reverse-splicing fitness was 0.00365.

Which reverse-splicing fitness does the source give for C82U A111C A120G A145U C150U C169G U176C here?
Its reverse-splicing fitness is 0.0111.

Which reverse-splicing fitness does the source give for C82U A111C A120G A145U C150U C169G U176A here?
The reverse-splicing fitness was 0.00992.

For C82U A111C A120G A145U C150U C169G U176G, which reverse-splicing fitness is on record?
The reverse-splicing fitness was 0.00453.

With C82U A111C A120G A145G C150G C169U U176G as the variant, how does the reverse-splicing fitness read?
The reverse-splicing fitness was 0.00643.

Which reverse-splicing fitness does the source give for C82U A111C A120G A145G C150G C169U U176A here?
The reverse-splicing fitness was 0.0116.

For C82U A111C A120G A145G C150G C169U U176C, which reverse-splicing fitness is on record?
Its reverse-splicing fitness is 0.0104.

Which reverse-splicing fitness does the source give for C82U A111C A120G A145U C169A here?
Its reverse-splicing fitness is 0.00767.

For C82U A111C A120G A145U C169U, which reverse-splicing fitness is on record?
The reverse-splicing fitness was 0.00765.

Which reverse-splicing fitness does the source give for C82U A111C A120G A145U C169G here?
Its reverse-splicing fitness is 0.00905.

With C82U A111C A120G C150U C169G U176G as the variant, how does the reverse-splicing fitness read?
Its reverse-splicing fitness is 0.00441.

Which reverse-splicing fitness does the source give for C82U A111C A120G C150U C169G U176C here?
Its reverse-splicing fitness is 0.0161.

For C82U A111C A120G C150U C169G U176A, which reverse-splicing fitness is on record?
The reverse-splicing fitness was 0.0121.

With C82U A111C A120G C150A C169U U176C as the variant, how does the reverse-splicing fitness read?
Its reverse-splicing fitness is 0.0146.

With C82U A111C A120G C150A C169U U176A as the variant, how does the reverse-splicing fitness read?
Its reverse-splicing fitness is 0.0192.

With C82U A111C A120G C150A C169U U176G as the variant, how does the reverse-splicing fitness read?
The reverse-splicing fitness was 0.00544.
